Results from publication PMC5992339, “The Structure of an Infectious Human Polyomavirus and Its Interactions with Cellular Receptors” (Structure(London, England:1993), 2018).

Target: the molecule itself
Test: cryo-EM structure; purified native BKV virions (0.25 mg/ml) adsorbed on carbon-coated lacey grids in buffer A without Triton X-100; icosahedral reconstructions: unliganded 3.8 A, with 20 mM GT1b oligosaccharide 3.4 A, with heparin 10 mg/ml 3.6 A, with 5 mM DTT (reduced) 6.5 A

B1: BK polyomavirus major capsid protein VP1 (natural protein)
chain: MAPTKRKGECPGAAPKKPKEPVQVPKLLIKGGVEVLEVKTGVDAITEVECFLNPEMGDPDENLRGFSLKLSAENDFSSDSPERKMLPCYSTARIPLPNLNEDLTCGNLLMWEAVTVQTEVIGITSMLNLHAGSQKVHEHGGGKPIQGSNFHFFAVGGEPLEMQGVLMNYRSKYPDGTITPKNPTAQSQVMNTDHKAYLDKNNAYPVECWVPDPSRNENARYFGTFTGGENVPPVLHVTNTATTVLLDEQGVGPLCKADSLYVSAADICGLFTNSSGTQQWRGLARYFKIRLRKRSVKNPYPISFLLSDLINRRTQRVDGQPMYGMESQVEEVRVFDGTERLPGDPDMIRYIDKQGQLQTKML
notes: Major capsid protein VP1 of BK polyomavirus, Dunlop strain, as it stands in the native virion made from the genome of plasmid pGEM7-Dunlop; the model is built up to Lys359 in chain 6, and the first 13 residues of chain 2 are not resolved; Protein of the native virion, with no tags and no truncation; The capsid is built from 72 pentons of VP1 (T = 7d); also called BKV VP1; chains 1-6 (the six …)
  binding result: binds
